Biological target: Light-Harvesting Complex II (LHCII) (spinach)
Experiment: native gel or EMSA

stoichiometry N: 3
Substance: Light-Harvesting Complex II (LHCII)
